Reference: paper PMC2756588

Assays:
Assay in all cases: SPOT array
[1] = molecular target: Bem1-2, P29366; conditions: median of control spots 4347
[2] = molecular target: T1, Abp1, P15891; conditions: median of control spots 935
T1 sequence (P15891 535-592, looked up): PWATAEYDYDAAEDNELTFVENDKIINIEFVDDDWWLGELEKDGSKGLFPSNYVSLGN

[3] = molecular target: T2, Cyk3, Q07533; conditions: median of control spots 1451
T2 sequence (Q07533 1-83, looked up): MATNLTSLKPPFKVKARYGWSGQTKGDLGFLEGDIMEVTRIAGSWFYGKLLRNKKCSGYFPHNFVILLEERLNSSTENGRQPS

[4] = molecular target: T3, Lsb3, P43603; conditions: median of control spots 406
T3 sequence (P43603 385-451, looked up): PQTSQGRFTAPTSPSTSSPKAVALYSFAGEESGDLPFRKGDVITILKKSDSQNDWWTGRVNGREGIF

[5] = molecular target: T4, Sla1-3, P32790; conditions: median of control spots 5475
T4 sequence (P32790 344-424, looked up): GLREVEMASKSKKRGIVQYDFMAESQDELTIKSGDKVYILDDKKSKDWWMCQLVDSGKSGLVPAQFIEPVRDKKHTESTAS

[6] = molecular target: T5, Fus1, P11710; conditions: median of control spots 1200
T5 sequence (P11710 432-512, looked up): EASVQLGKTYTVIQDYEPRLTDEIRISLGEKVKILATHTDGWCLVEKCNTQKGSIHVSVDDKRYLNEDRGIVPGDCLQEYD

[7] = molecular target: T6, Bzz1-1, P38822; conditions: median of control spots 4446
T6 sequence (P38822 478-572, looked up): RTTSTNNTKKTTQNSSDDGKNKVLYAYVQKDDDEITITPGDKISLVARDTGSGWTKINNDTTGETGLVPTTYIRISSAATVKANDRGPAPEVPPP

[8] = molecular target: T7, Sla1-2, P32790; conditions: median of control spots 712
T7 sequence (P32790 60-140, looked up): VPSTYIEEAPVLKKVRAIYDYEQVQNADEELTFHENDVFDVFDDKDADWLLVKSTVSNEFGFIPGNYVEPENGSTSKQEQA

[9] = molecular target: Myo3, P36006; conditions: median of control spots 468
[10] = molecular target: T8, Hof1, Q05080; conditions: median of control spots 4086
T8 sequence (Q05080 590-669, looked up): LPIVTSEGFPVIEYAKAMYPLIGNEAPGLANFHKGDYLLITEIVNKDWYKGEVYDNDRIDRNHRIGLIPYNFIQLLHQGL

[11] = molecular target: T9, Pin3, Q06449; conditions: median of control spots 2171
T9 sequence (Q06449 53-122, looked up): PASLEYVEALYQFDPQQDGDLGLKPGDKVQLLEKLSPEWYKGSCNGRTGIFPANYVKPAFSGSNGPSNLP

[12] = molecular target: Sho1, P40073; conditions: median of control spots 1148
Chain of Sho1, P40073 (P40073 287-367): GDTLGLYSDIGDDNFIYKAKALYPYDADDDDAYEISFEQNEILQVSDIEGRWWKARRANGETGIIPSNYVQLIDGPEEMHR

[13] = molecular target: T10, Hse1, P38753; conditions: median of control spots 1727
T10 sequence (P38753 208-285, looked up): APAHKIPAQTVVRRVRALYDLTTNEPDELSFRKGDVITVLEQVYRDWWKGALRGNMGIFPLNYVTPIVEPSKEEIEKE

[14] = molecular target: T11, Pex13, P80667; conditions: median of control spots 1341
T11 sequence (P80667 295-386, looked up): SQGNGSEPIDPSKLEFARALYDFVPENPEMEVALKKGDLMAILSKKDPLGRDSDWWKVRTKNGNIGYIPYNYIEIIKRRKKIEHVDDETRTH

[15] = molecular target: T12, Myo5, Q04439; conditions: median of control spots 471
T12 sequence (Q04439 1072-1160, looked up): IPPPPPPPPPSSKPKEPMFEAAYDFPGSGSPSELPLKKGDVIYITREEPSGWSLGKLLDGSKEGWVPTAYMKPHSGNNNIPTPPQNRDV

[16] = molecular target: GST; conditions: median of control spots 978
[17] = molecular target: T13, Cdc25, P04821; conditions: median of control spots 969
T13 sequence (P04821 50-136, looked up): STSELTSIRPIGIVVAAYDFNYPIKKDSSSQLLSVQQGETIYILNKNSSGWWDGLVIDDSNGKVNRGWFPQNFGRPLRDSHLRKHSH

[18] = molecular target: Bem1-1, P29366; conditions: median of control spots 4282
Chain of Bem1-1, P29366 (P29366 55-141): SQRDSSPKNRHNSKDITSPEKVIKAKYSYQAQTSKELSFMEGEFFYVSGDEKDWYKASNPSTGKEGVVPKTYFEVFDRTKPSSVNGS

[19] = molecular target: T14, Lsb4, P32793; conditions: median of control spots 397
T14 sequence (P32793 402-468, looked up): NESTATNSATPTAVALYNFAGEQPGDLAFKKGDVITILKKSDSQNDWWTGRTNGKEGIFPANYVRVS

[20] = molecular target: T15, Lsb1, P53281; conditions: median of control spots 388
T15 sequence (P53281 45-122, looked up): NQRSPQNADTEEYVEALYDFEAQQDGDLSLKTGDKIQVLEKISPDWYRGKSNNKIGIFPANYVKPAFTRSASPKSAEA

[21] = molecular target: Rvs167, P39743; conditions: median of control spots 2707
Chain of Rvs167, P39743 (P39743 419-482): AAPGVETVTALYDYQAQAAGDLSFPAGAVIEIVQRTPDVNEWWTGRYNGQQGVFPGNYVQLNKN

[22] = molecular target: T16, Boi2, P39969; conditions: median of control spots 1161
T16 sequence (P39969 32-116, looked up): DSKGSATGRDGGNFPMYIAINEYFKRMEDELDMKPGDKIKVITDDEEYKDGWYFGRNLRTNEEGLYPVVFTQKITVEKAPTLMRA

[23] = molecular target: T17, Boi1, P38041; conditions: median of control spots 1162
T17 sequence (P38041 1-86, looked up): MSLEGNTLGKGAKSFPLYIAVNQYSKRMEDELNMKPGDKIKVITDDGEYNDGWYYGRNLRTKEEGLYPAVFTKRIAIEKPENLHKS

[24] = molecular target: T18, Bbc1, P47068; conditions: median of control spots 796
T18 sequence (P47068 1-78, looked up): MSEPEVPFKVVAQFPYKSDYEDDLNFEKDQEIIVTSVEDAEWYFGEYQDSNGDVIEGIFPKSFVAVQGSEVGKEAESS

[25] = molecular target: T19, Bud14, P27637; conditions: median of control spots 956
T19 sequence (P27637 247-328, looked up): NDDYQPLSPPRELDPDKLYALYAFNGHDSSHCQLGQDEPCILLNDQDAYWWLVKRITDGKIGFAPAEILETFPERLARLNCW

[26] = molecular target: T20, Nbp2, Q12163; conditions: median of control spots 357
T20 sequence (Q12163 103-180, looked up): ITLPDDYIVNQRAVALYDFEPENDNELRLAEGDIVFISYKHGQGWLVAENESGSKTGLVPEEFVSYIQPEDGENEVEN

[27] = molecular target: T21, Bzz1-2, P38822; conditions: median of control spots 4538
T21 sequence (P38822 568-633, looked up): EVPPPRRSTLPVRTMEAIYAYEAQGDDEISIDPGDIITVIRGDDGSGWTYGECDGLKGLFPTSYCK

Chain of Bem1-2, P29366 (P29366 139-227): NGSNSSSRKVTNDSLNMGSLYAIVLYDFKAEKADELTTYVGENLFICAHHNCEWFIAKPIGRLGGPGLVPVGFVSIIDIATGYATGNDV

VQKRKLPLPGSIASA
SPOT intensity [1]: 1
SPOT intensity [2]: 157
SPOT intensity [3]: 0
SPOT intensity [4]: 1
SPOT intensity [5]: 4
SPOT intensity [6]: 0
SPOT intensity [7]: 0
SPOT intensity [8]: 0
SPOT intensity [9]: 0
SPOT intensity [10]: 0
SPOT intensity [11]: 0
SPOT intensity [12]: 11
SPOT intensity [13]: 0
SPOT intensity [14]: 0
SPOT intensity [15]: 0
SPOT intensity [16]: 0
SPOT intensity [17]: 18
SPOT intensity [18]: 0
SPOT intensity [19]: 13
SPOT intensity [20]: 0
SPOT intensity [21]: 0
SPOT intensity [22]: 0
SPOT intensity [23]: 0
SPOT intensity [24]: 23
SPOT intensity [25]: 0
SPOT intensity [26]: 1
SPOT intensity [27]: 0

GSKSGPPPRPKKPST
SPOT intensity [1]: 2
SPOT intensity [2]: 285
SPOT intensity [3]: 3
SPOT intensity [4]: 55
SPOT intensity [5]: 4
SPOT intensity [6]: 0
SPOT intensity [7]: 3
SPOT intensity [8]: 1
SPOT intensity [9]: 3
SPOT intensity [10]: 0
SPOT intensity [11]: 2
SPOT intensity [12]: 16
SPOT intensity [13]: 38
SPOT intensity [14]: 23
SPOT intensity [15]: 0
SPOT intensity [16]: 2
SPOT intensity [17]: 0
SPOT intensity [18]: 1
SPOT intensity [19]: 2
SPOT intensity [20]: 0
SPOT intensity [21]: 1
SPOT intensity [22]: 0
SPOT intensity [23]: 4
SPOT intensity [24]: 13
SPOT intensity [25]: 7
SPOT intensity [26]: 0
SPOT intensity [27]: 11

STKKPRPPVKSKPKH
SPOT intensity [1]: 2
SPOT intensity [2]: 397
SPOT intensity [3]: 3
SPOT intensity [4]: 0
SPOT intensity [5]: 5
SPOT intensity [6]: 1
SPOT intensity [7]: 1
SPOT intensity [8]: 0
SPOT intensity [9]: 0
SPOT intensity [10]: 0
SPOT intensity [11]: 0
SPOT intensity [12]: 12
SPOT intensity [13]: 1
SPOT intensity [14]: 0
SPOT intensity [15]: 0
SPOT intensity [16]: 2
SPOT intensity [17]: 0
SPOT intensity [18]: 0
SPOT intensity [19]: 0
SPOT intensity [20]: 0
SPOT intensity [21]: 12
SPOT intensity [22]: 1
SPOT intensity [23]: 0
SPOT intensity [24]: 3
SPOT intensity [25]: 3
SPOT intensity [26]: 0
SPOT intensity [27]: 5

KDKKTKPTPPPKPSH
SPOT intensity [1]: 5
SPOT intensity [2]: 190
SPOT intensity [3]: 2
SPOT intensity [4]: 2
SPOT intensity [5]: 0
SPOT intensity [6]: 4
SPOT intensity [7]: 0
SPOT intensity [8]: 1
SPOT intensity [9]: 0
SPOT intensity [10]: 0
SPOT intensity [11]: 0
SPOT intensity [12]: 50
SPOT intensity [13]: 2
SPOT intensity [14]: 0
SPOT intensity [15]: 0
SPOT intensity [16]: 3
SPOT intensity [17]: 2
SPOT intensity [18]: 1
SPOT intensity [19]: 0
SPOT intensity [20]: 0
SPOT intensity [21]: 1
SPOT intensity [22]: 0
SPOT intensity [23]: 0
SPOT intensity [24]: 0
SPOT intensity [25]: 4
SPOT intensity [26]: 2
SPOT intensity [27]: 1
